According to ChEMBL document CHEMBL1151784, “Antibiotic evaluation and in vivo analysis of alkynyl Coenzyme A antimetabolites in Escherichia coli” (2008):

Experiments:
[1] = substrate: CCCCCNC(=O)CCNC(=O)[C@H](O)C(C)(C)CO; assay: (§1) Activity of Escherichia coli K12 CoaA
[2] = substrate: CC(C)(CO)[C@@H](O)C(=O)NCCC(=O)NCCN=[N+]=[N-]; assay: as §1
[3] = substrate: C=CC(=O)NCCNC(=O)CCNC(=O)[C@H](O)C(C)(C)CO; assay: as §1
[4] = substrate: CCCNC(=O)CCNC(=O)[C@H](O)C(C)(C)CO; assay: as §1
[5] = substrate: CCC(=O)NCCNC(=O)CCNC(=O)[C@H](O)C(C)(C)CO; assay: as §1
[6] = substrate: C#CCCCNC(=O)CCNC(=O)[C@H](O)C(C)(C)CO; assay: as §1
[7] = substrate: C#CCCCCNC(=O)CCNC(=O)[C@H](O)C(C)(C)CO; assay: as §1
[8] = substrate: C#CCCC(=O)NCCNC(=O)CCNC(=O)[C@H](O)C(C)(C)CO; assay: as §1
[9] = substrate: C#CC(=O)NCCNC(=O)CCNC(=O)[C@H](O)C(C)(C)CO; assay: as §1
[10] = substrate: CCOC(=O)NCCNC(=O)CCNC(=O)[C@H](O)C(C)(C)CO; assay: as §1
[11] = substrate: C#CCNC(=O)CCNC(=O)[C@H](O)C(C)(C)CO; assay: as §1
[12] = substrate: C#CCCNC(=O)CCNC(=O)[C@H](O)C(C)(C)CO; assay: as §1
[13] = substrate: CCC(=O)OCCNC(=O)CCNC(=O)[C@H](O)C(C)(C)CO; assay: as §1
[14] = substrate: CC(C)(CO)[C@@H](O)C(=O)NCCC(=O)O; assay: as §1
[15] = substrate: C=CCNC(=O)CCNC(=O)[C@H](O)C(C)(C)CO; assay: as §1
[16] = substrate: C#CCNC(=O)[C@H](O)C(C)(C)CO; assay: as §1
[17] = substrate: CCCCCNC(=O)CCNC(=O)[C@H](O)C(C)(C)CO; assay: (§2) Ratio of kcat to Km for Escherichia coli K12 CoaA
[18] = substrate: CC(C)(CO)[C@@H](O)C(=O)NCCC(=O)NCCN=[N+]=[N-]; assay: as §2
[19] = substrate: C=CC(=O)NCCNC(=O)CCNC(=O)[C@H](O)C(C)(C)CO; assay: as §2
[20] = substrate: CCCNC(=O)CCNC(=O)[C@H](O)C(C)(C)CO; assay: as §2
[21] = substrate: CCC(=O)NCCNC(=O)CCNC(=O)[C@H](O)C(C)(C)CO; assay: as §2
[22] = substrate: C#CCCCNC(=O)CCNC(=O)[C@H](O)C(C)(C)CO; assay: as §2
[23] = substrate: C#CCCCCNC(=O)CCNC(=O)[C@H](O)C(C)(C)CO; assay: as §2
[24] = substrate: C#CCCC(=O)NCCNC(=O)CCNC(=O)[C@H](O)C(C)(C)CO; assay: as §2
[25] = substrate: C#CC(=O)NCCNC(=O)CCNC(=O)[C@H](O)C(C)(C)CO; assay: as §2
[26] = substrate: CCOC(=O)NCCNC(=O)CCNC(=O)[C@H](O)C(C)(C)CO; assay: as §2
[27] = substrate: C#CCNC(=O)CCNC(=O)[C@H](O)C(C)(C)CO; assay: as §2
[28] = substrate: C#CCCNC(=O)CCNC(=O)[C@H](O)C(C)(C)CO; assay: as §2
[29] = substrate: CCC(=O)OCCNC(=O)CCNC(=O)[C@H](O)C(C)(C)CO; assay: as §2
[30] = substrate: CC(C)(CO)[C@@H](O)C(=O)NCCC(=O)O; assay: as §2
[31] = substrate: C=CCNC(=O)CCNC(=O)[C@H](O)C(C)(C)CO; assay: as §2
[32] = substrate: C#CCNC(=O)[C@H](O)C(C)(C)CO; assay: as §2

B1: Pantothenate kinase (Escherichia coli K-12), P0A6I3 (protein)
chain: MSIKEQTLMTPYLQFDRNQWAALRDSVPMTLSEDEIARLKGINEDLSLEEVAEIYLPLSRLLNFYISSNLRRQAVLEQFLGTNGQRIPYIISIAGSVAVGKSTTARVLQALLSRWPEHRRVELITTDGFLHPNQVLKERGLMKKKGFPESYDMHRLVKFVSDLKSGVPNVTAPVYSHLIYDVIPDGDKTVVQPDILILEGLNVLQSGMDYPHDPHHVFVSDFVDFSIYVDAPEDLLQTWYINRFLKFREGAFTDPDSYFHNYAKLTKEEAIKTAMTLWKEINWLNLKQNILPTRERASLILTKSANHAVEEVRLRK
For B1, the Km [1] was 34 µM, the Vmax [1] was 0.34 µM/s and the kcat [1] was 0.014 s⁻¹. It also gave a Km [2] of 43.5 µM, a Vmax [2] of 0.28 µM/s and a kcat [2] of 0.0115 s⁻¹. The Km [3] was 58 µM, the Vmax [3] was 0.26 µM/s and the kcat [3] was 0.0107 s⁻¹. The Km [4] was 36.9 µM, the Vmax [4] was 0.37 µM/s and the kcat [4] was 0.0152 s⁻¹. For the same protein, the Km [5] was 34.6 µM, the Vmax [5] was 0.22 µM/s and the kcat [5] was 0.00883 s⁻¹. For the same protein, the Km [6] was 40.3 µM, the Vmax [6] was 0.29 µM/s and the kcat [6] was 0.012 s⁻¹. For the same protein, the Km [7] was 40 µM, the Vmax [7] was 0.29 µM/s and the kcat [7] was 0.012 s⁻¹. The Km [8] was 47.8 µM, the Vmax [8] was 0.23 µM/s and the kcat [8] was 0.00933 s⁻¹. The Km [9] was 48.5 µM, the Vmax [9] was 0.22 µM/s and the kcat [9] was 0.009 s⁻¹. The Km [10] was 33.7 µM, the Vmax [10] was 0.25 µM/s and the kcat [10] was 0.0103 s⁻¹. The Km [11] was 36 µM, the Vmax [11] was 0.31 µM/s and the kcat [11] was 0.0128 s⁻¹. For the same protein, the Km [12] was 34 µM, the Vmax [12] was 0.33 µM/s and the kcat [12] was 0.0135 s⁻¹. The Km [13] was 27.8 µM, the Vmax [13] was 0.26 µM/s and the kcat [13] was 0.0108 s⁻¹. For the same protein, the Km [14] was 35.8 µM, the Vmax [14] was 0.31 µM/s and the kcat [14] was 0.0127 s⁻¹. It also gave a Km [15] of 41.2 µM, a Vmax [15] of 0.38 µM/s and a kcat [15] of 0.0157 s⁻¹. The Km [16] was 396 µM, the Vmax [16] was 0.26 µM/s and the kcat [16] was 0.0107 s⁻¹. For the same protein, the kcat/Km [17] was 410 M⁻¹ s⁻¹, the kcat/Km [18] was 268 M⁻¹ s⁻¹ and the kcat/Km [19] was 183 M⁻¹ s⁻¹. The kcat/Km [20] was 411 M⁻¹ s⁻¹, the kcat/Km [21] was 257 M⁻¹ s⁻¹ and the kcat/Km [22] was 299 M⁻¹ s⁻¹. For the same protein, the kcat/Km [23] was 300 M⁻¹ s⁻¹, the kcat/Km [24] was 195 M⁻¹ s⁻¹ and the kcat/Km [25] was 185 M⁻¹ s⁻¹. It also gave a kcat/Km [26] of 305 M⁻¹ s⁻¹, a kcat/Km [27] of 356 M⁻¹ s⁻¹ and a kcat/Km [28] of 396 M⁻¹ s⁻¹. It also gave a kcat/Km [29] of 392 M⁻¹ s⁻¹, a kcat/Km [30] of 352 M⁻¹ s⁻¹ and a kcat/Km [31] of 381 M⁻¹ s⁻¹. It also gave a kcat/Km [32] of 27 M⁻¹ s⁻¹.
